{
  "source": "paper PMC11695638",
  "key": {"[1]": {"molecular_target": "asialoglycoprotein receptor 1 (ASGR1, P01) (UniProt P07306)", "assay": "SPR; Biacore T200, 25°C, HBS-EP+ with 8 mM CaCl2; LRP-1 (approx. 1300 RU), ASGR1 (approx. 1500 RU) and MRC1 (approx. 13,000 RU) amine-coupled to parallel flow cells of CM5; Metalyse (88, 53, 32 μg/mL) and Mingfule (53, 32, 19 μg/mL) injected at 30 μL/min for 240 s, 150 s dissociation; sensorgram comparison gives a similarity score"}, "[2]": {"molecular_target": "mannose receptor C, type 1 (MRC1) (UniProt P22897)", "sequence (P22897 19-1389)": "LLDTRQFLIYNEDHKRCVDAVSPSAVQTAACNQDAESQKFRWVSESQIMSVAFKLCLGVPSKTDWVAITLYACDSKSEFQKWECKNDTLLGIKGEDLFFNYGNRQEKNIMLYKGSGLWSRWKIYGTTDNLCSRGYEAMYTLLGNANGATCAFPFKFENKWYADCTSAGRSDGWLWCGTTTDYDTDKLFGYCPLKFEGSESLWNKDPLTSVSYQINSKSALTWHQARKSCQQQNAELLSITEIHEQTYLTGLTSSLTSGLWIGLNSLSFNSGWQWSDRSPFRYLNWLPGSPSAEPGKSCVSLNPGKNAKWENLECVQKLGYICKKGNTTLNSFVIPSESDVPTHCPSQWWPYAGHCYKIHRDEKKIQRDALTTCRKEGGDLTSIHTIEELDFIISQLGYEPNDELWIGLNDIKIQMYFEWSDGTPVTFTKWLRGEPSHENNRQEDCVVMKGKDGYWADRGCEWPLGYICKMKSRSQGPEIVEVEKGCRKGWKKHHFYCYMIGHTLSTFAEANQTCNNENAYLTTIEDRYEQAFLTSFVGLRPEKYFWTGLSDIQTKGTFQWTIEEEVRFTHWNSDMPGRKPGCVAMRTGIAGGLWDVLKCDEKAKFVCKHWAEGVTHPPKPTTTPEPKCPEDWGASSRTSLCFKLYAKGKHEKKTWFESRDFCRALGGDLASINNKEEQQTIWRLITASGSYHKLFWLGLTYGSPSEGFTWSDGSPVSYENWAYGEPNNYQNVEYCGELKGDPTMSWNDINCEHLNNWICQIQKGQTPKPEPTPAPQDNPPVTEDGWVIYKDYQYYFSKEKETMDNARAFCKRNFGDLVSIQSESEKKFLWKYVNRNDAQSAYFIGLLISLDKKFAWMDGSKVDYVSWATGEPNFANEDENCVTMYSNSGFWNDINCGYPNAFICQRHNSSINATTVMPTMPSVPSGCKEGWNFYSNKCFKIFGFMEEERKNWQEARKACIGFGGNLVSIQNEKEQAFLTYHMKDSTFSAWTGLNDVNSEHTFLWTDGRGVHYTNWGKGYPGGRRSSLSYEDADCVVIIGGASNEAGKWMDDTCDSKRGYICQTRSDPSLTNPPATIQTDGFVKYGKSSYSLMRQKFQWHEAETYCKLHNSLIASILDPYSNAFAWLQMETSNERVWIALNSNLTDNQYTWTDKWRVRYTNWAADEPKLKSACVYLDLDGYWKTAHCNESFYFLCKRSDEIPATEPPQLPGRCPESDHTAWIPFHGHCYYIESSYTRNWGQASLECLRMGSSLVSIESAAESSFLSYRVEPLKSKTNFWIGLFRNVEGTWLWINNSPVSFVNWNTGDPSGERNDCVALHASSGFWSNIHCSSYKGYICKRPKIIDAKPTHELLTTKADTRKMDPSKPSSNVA", "assay": "SPR; Biacore T200, 25°C, HBS-EP+ with 8 mM CaCl2; LRP-1 (approx. 1300 RU), ASGR1 (approx. 1500 RU) and MRC1 (approx. 13,000 RU) amine-coupled to parallel flow cells of CM5; Metalyse (88, 53, 32 μg/mL) and Mingfule (53, 32, 19 μg/mL) injected at 30 μL/min for 240 s, 150 s dissociation; sensorgram comparison gives a similarity score"}, "[3]": {"molecular_target": "recombinant low-density lipoprotein receptor-related protein 1 (LRP-1) Cluster IV", "assay": "SPR; Biacore T200, 25°C, HBS-EP+ with 8 mM CaCl2; LRP-1 (approx. 1300 RU), ASGR1 (approx. 1500 RU) and MRC1 (approx. 13,000 RU) amine-coupled to parallel flow cells of CM5; Metalyse (88, 53, 32 μg/mL) and Mingfule (53, 32, 19 μg/mL) injected at 30 μL/min for 240 s, 150 s dissociation; sensorgram comparison gives a similarity score"}, "[4]": {"molecular_target": "fibrin (immobilised human plasma fibrinogen cross-linked on the chip with thrombin and coagulation factor XIII) (human) (UniProt P02671)", "sequence (P02671 36-866, chain 1 of 3)": "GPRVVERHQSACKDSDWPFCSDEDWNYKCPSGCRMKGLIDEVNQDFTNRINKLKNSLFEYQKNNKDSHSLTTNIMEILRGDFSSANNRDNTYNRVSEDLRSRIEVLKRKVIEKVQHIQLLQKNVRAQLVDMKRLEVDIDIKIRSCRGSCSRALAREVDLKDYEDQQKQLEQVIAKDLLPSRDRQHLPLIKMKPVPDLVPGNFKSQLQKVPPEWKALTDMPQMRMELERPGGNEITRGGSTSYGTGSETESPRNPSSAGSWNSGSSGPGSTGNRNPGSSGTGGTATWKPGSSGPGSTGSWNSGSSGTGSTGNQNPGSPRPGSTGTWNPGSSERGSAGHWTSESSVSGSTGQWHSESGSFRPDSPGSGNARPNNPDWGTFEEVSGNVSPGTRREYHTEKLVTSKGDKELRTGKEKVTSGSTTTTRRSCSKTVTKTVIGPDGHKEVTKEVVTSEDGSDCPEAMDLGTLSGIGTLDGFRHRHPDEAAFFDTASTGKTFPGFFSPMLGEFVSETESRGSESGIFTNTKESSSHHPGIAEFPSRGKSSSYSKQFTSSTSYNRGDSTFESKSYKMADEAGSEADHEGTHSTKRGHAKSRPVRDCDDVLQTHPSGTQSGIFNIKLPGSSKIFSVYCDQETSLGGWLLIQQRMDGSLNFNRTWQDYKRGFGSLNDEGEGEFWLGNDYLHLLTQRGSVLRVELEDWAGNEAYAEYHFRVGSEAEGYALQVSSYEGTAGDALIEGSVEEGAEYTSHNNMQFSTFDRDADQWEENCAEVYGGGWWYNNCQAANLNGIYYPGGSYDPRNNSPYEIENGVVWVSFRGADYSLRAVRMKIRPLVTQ", "sequence (P02675 45-491, chain 2 of 3, further chain)": "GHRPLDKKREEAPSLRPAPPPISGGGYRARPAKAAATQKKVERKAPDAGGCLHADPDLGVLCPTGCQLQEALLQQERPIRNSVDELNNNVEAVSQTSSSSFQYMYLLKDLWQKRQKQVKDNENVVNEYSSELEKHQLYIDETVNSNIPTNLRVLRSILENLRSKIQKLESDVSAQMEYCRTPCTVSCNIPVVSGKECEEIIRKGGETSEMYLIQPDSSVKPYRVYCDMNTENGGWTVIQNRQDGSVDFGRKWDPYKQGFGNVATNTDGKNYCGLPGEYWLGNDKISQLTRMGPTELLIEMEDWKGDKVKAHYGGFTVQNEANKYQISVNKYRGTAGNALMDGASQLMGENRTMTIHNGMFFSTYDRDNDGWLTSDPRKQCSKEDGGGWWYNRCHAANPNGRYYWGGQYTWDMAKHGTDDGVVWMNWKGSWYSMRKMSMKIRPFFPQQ", "sequence (P02679 27-453, chain 3 of 3, further chain)": "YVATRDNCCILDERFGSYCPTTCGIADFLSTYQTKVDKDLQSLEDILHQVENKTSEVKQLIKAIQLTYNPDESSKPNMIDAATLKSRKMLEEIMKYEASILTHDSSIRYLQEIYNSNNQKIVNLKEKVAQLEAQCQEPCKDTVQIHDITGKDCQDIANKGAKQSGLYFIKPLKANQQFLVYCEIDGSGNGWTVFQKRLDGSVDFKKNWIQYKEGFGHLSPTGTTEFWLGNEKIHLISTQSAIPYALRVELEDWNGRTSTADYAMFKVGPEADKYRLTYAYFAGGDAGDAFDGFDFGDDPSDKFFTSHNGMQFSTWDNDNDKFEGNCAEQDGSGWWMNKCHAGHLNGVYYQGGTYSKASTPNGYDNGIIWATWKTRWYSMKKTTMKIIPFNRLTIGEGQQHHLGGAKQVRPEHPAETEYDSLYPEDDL", "assay": "SPR; Biacore T200, 25°C, HBS-EP+; fibrinogen amine-coupled to CM5 (aim 12,000 RU) and cross-linked with thrombin and factor XIII; tenecteplase injected at 2, 3 and 4 μg/mL, 5 μL/min, 120 s contact and 120 s dissociation; sensorgram comparison against a corridor (average ± 3 SD, normalised) of three Metalyse lots gives a similarity score"}},
  "note": "Where “and” joins values, the source holds several entries; their conditions need not be identical. Identical values can stand only once.",
  "data": [
    {"substance": "tenecteplase copy Mingfule 16 mg/vial (CSPC Recomgen Pharmaceutical, Guangzhou, Co., Ltd.) (enzyme)", "values": [
      {"measurement": "similarity score to Metalyse (SPR sensorgram comparison)", "setting": "[1]", "result": "5% and 6% and 9%"},
      {"measurement": "similarity score to Metalyse (SPR sensorgram comparison)", "setting": "[2]", "result": "8% and 9% and 10%"},
      {"measurement": "similarity score to Metalyse (SPR sensorgram comparison)", "setting": "[3]", "result": "30% and 17% and 25%"},
      {"measurement": "similarity score to Metalyse (SPR sensorgram comparison)", "setting": "[4]", "result": "53% and 37% and 46%"}
    ]}
  ]
}
